In one experiment the target is T1, VEGF3-93 (human, UniProt P15692 209-299).
T1 construct: Truncated VEGF fragment expressed in E. coli as a fusion protein detected by anti-penta-His
T1 sequence: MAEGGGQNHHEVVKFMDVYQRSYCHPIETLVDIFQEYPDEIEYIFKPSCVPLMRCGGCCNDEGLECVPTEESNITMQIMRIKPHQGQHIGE
The experiment can be described thus: Western blot of E. coli lysates. The protocol:
(§1) To elucidate the binding epitope of VC300 mAb, the VEGF₃₋₁₁₄ (SEQ ID NO: 8) and five VEGF fragments, VEGF₃₋₃₃, VEGF₃₋₆₃, VEGF₃₋₉₃, VEGF₃₋₁₀₀, and VEGF₃₋₁₀₇ (see FIG. 1B), were used in the mapping. Nucleotide sequences of all these constructs were verified by DNA sequencing. Expression profiles of fusion proteins were analyzed by 12.5% SDS-PAGE and Western blot analysis with anti-penta-His monoclonal antibody (Qiagen, Valencia, Calif.). The lysates were used in verification of the binding epitope of VC300 mAb.
(§2) E. coli cells containing various truncated fragments of VEGF cDNA in expression vector were induced to express recombinant proteins with 0.4 mM isopropyl-β-D-thiogalactopyranoside (IPTG, Sigma-Aldrich, St. Louis, Mo.) at 37° C. for 3 h and the cells were harvested by centrifugation at 10,000 rpm for 2 min. The cell pellets were suspended and lysed with protein sample buffer, boiled for 10 min and analyzed by a 12.5% SDS-PAGE. For Western blot analysis, the gels were electroblotted onto PVDF membranes and the membranes were blocked with 5% skim milk in phosphate-buffered saline, pH 7.4 containing 0.05% Tween 20 at RT for 1 h, probed with a 1:1000 dilution of anti-penta-His monoclonal antibody or VC300 mAb followed by reaction with HRP-conjugated goat anti-mouse immunoglobulin (Chemicon Int., Temecula, Calif.). The binding reaction was detected by the addition of the diaminobenzidine (Sigma-Aldrich, St. Louis, Mo.) color development reagent, 0.05% diaminobenzidine, 0.005% hydrogen peroxide in 0.1 M Tris-HCl, pH 7.4.

For a further experiment, the target named is T2, VEGF3-100 (human, UniProt P15692 209-306).
T2 construct: Truncated VEGF fragment expressed in E. coli as a fusion protein detected by anti-penta-His
T2 sequence: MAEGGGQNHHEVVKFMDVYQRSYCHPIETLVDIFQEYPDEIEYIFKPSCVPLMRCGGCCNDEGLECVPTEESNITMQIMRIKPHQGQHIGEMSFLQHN
The experiment can be described thus: Western blot of E. coli lysates. The protocol:
as §1, §2
In general terms: In western blotting, separated proteins are transferred to a membrane and probed.

For the next experiment, the target named is T3, VEGF3-33 (human).
T3 construct: Truncated VEGF fragment expressed in E. coli as a fusion protein detected by anti-penta-His; Tested denatured in cell lysate by Western blot
T3 chain: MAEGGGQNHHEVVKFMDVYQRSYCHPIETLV
The experiment can be described thus: Western blot of E. coli lysates. The protocol:
as §1, §2

Another experiment concerns the target T4, VEGF3-63 (human, UniProt P15692 209-269).
T4 construct: Truncated VEGF fragment expressed in E. coli as a fusion protein detected by anti-penta-His
T4 sequence: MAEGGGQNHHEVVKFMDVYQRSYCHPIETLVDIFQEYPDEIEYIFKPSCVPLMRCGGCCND
The experiment can be described thus: Western blot of E. coli lysates. The protocol:
as §1, §2

Experiment [1] has as its target T5, recombinant VEGF3-114 (human, UniProt P15692 209-320).
T5 construct: Expressed in E. coli
T5 sequence: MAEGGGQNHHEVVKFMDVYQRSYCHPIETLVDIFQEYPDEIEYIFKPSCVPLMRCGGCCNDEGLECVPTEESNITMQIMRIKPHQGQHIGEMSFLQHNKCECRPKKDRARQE
The experiment can be described thus: competitive ELISA: VC300 mAb equilibrated with soluble VEGF3-114, then added to wells coated with VEGF3-114. The protocol: The VC300 mAb was purified from mice ascites by ammonium sulfate precipitation and CM Sepharsoe chromatography (GE Healthcare, Piscataway, N.J.). The purified VC300 mAb was analyzed by 7.5% SDS-PAGE and the protein concentration was quantitated by the absorbance at 280 nm. Isotype determination of VC300 mAb was carried out by a monoclonal antibody isotyping kit I obtained from PIERCE (Rockford, Ill., USA). The dissociation constant (Kd) of antigen-antibody interaction was determined by competitive ELISA [Lin et al., (1997) Anal. Biochem., 254: 9-17]. In brief, the antigen, VEGF₃₋₁₁₄, at various concentrations was incubated with the antibody, VC300 mAb at 4° C. for overnight to reach equilibrium. The mixtures were transferred to the wells coated with 3 μg/ml of VEGF₃₋₁₁₄ and incubated at room temperature for 1 h. […] Absorbance at 450 nm was measured and the Kd value was calculated as described previously.
For orientation: In an ELISA, binding on a coated surface is turned into a signal by an enzyme label.

The target of experiment [2] is T5, recombinant VEGF3-114. As to the kind of experiment: cell-based or functional assay.

B1: VC300 mAb (antibody, IgG1, V domains shown)
VH: EIQLLQSGPELVKPGASVKISCKASGYSFTGYFMNWVMQSHGRTLEWIGRINPYTGETLYNQKFKDKATLTAEISSSTAHMELRSLASDDSAVYFCARRGYAGSGGIYSMDSWGPGTSVTVSS
VL: EIVLTQSPAIMSASLGERVTMTCTASSAVSSSYLHWYHQKPGSSPKLWIFSTSNLASGVPSRFTGSGSGTSYSLTISSVEAEDAATYYCHQYHRSPYTFGAGTKLELN
notes: Mouse hybridoma antibody (BALB/c), purified from mouse ascites; isotype determined to be IgG1; constant regions are not; also called anti-VEGF monoclonal antibody
Broadly, the Kd is the free concentration of one partner at which half of the binding sites on the other are occupied at equilibrium, for simple one-to-one binding. For the molecule B1, the binding result with VEGF3-93, with VEGF3-100, in the experiment with VEGF3-33 and with VEGF3-63 was “no binding (tested: 1:1000 dilution of VC300 mAb)” throughout. The Kd with recombinant VEGF3-114 [1] was approximately 2 nM. In addition, the “IC50 of inhibition of VEGF-induced HUVEC proliferation (BrdU incorporation, 13.6 ng/ml VEGF3-114)” value in the experiment with recombinant VEGF3-114 [2] was approximately 1 nM.

The record behind these values is US20090269336A1 (TAIWAN LIPOSOME, published 2009).
